Results: US8153759B2, “Depsipeptide containing lactic acid residue” (National University Corporation Gunma University, priority 2006, dated 2012)
Non-standard residues stand in square brackets, D forms with d. No end group written: not given here. Hmb = valic acid residue (β-branched hydroxycarboxylic acid); Lac = C[C@H](O)C(=O)O

Assay: Observation of temperature responsiveness by apparent absorbance (turbidity at 350 nm) of aqueous polymer solutions
Format: physicochemical
Details: for temperature responsiveness (gelation/aggregation by heating, liquefaction by cooling): reversibility / aggregation temperature: aqueous solution 10 mg/mL; for temperature responsiveness (gelation/aggregation by heating, liquefaction by cooling): reversibility: temperature-increase and -decrease rate 1° C./5 minutes between 20° C. and 70° C., 350 nm; for aggregation temperature: rate 1° C./5 minutes, 350 nm (FIG. 9)
Procedure: (§1) FIG. 5 illustrates a graph obtained by the following procedure: an aqueous solution of poly(Gly-Ile-Gly-Lac-Pro) (SEQ ID NO: 7) (10 mg/mL) which is one embodiment of the present invention was put in a 1-mm-thick quartz cell for absorption spectra; the temperature was increased at a rate of 1° C./5 minutes between 20° C. and 70° C. and then decreased; transmittance (%) was measured with respect to a light of 350 nm at each temperature in a 1° C. interval; and a turbidity (%) obtained by subtracting the transmittance (%) from 100 was plotted.
as §1, with “FIG. 6” for “FIG. 5”, “of poly(Ala-Ile-Gly-Lac-Pro)” for “of poly(Gly-Ile-Gly-Lac-Pro)”, “NO: 8)” for “NO: 7)”
as §1, with “FIG. 9” for “FIG. 5”, “of poly(Gly-Val-Gly-Lac-Pro)” for “of poly(Gly-Ile-Gly-Lac-Pro)”, “NO: 9)” for “NO: 7)”, “plotted. In addition, as a comparative example, a plot of an aqueous solution (10 mg/mL) of poly(Gly-Val-Gly-Hmb-Pro) was shown.” for “plotted.”
as §1, with “FIG. 10” for “FIG. 5”, “of poly(Gly-Val-Gly-Lac-Pro)” for “of poly(Gly-Ile-Gly-Lac-Pro)”, “NO: 9)” for “NO: 7) (10 mg/mL)”, “invention with different concentrations (10, 20, 30, and 40 mg/mL)” for “invention”
as §1, with “FIG. 11” for “FIG. 5”, “of poly(Gly-Val-Gly-Lac-Pro)” for “of poly(Gly-Ile-Gly-Lac-Pro)”, “NO: 9) (40” for “NO: 7) (10”
The change in temperature responsiveness of each polymer obtained in Examples 2 and 4 due to heating an aqueous solution of the polymer was observed by apparent absorbance. The wavelength for observation was 350 nm. The wavelength corresponds to phenomenon of light scattering, i.e. white turbidity, by visual observation. Here, spectrum of poly(Gly-Ile-Gly-Lac-Pro (SEQ ID NO: 7)) and poly(Ala-Ile-Gly-Lac-Pro) (SEQ ID NO: 8) are shown in FIG. 5 and FIG. 6, respectively. The ordinate axes each represent turbidity converted from the transmittance. From the figure, the temperature responsiveness rate can be compared. […] In addition, in comparison between the observation by visual observation and the measured turbidity, the polymer underwent aggregation adequately even when the turbidity exceeds about 10 to 20%. […] The solution was actually returned to a uniform solution finally by left standing at 4° C. for 1 to 2 days. The extremely slow responsiveness (return to a uniform solution) at a low temperature is a novel property that has not happened before. […]

| Substance | temperature responsiveness (gelation/aggregation by heating, liquefaction by cooling): reversibility | aggregation temperature | other results |
| --- | --- | --- | --- |
| poly(Ala-Ile-Gly-Lac-Pro) (AIG[Lac]P; numbers in words are those of the source; also: polymerized repeat, ~10 units) [depsipeptide polymer, polymerization degree about 10 (molecular weight about 4,500)] | irreversible temperature responsiveness for several hours even when cooled |  | time left standing until aggregated solution returned to a uniform solution (aggregation state at high temperature transferred to low temperature, left standing at 4° C.): 1 to 2 days |
| poly(Gly-Val-Gly-Lac-Pro) (GVG[Lac]P; also: polymerized repeat unit) |  | ≥ 70 °C | reversibility of phase transition phenomenon (aqueous solution 40 mg/mL, 1° C./5 minutes, 20-70° C. (FIG. 11)): reversible; aggregation temperature at increased concentration (aqueous solution, concentration increased in the range 10 to 40 mg/mL (FIG. 10)): ≤ 70 °C; concentration dependence of aggregation temperature (range of 10 to 40 mg/mL (FIG. 10)): decrease with the increase in the concentration |
| poly(Gly-Ile-Gly-Lac-Pro) (GIG[Lac]P; numbers in words are those of the source; also: polymerized repeat, ~3 units) [depsipeptide polymer, polymerization degree about 3 (molecular weight about 1,200)] | reversible temperature responsiveness |  |  |
| poly(Gly-Val-Gly-Hmb-Pro) (GVG[Hmb]P; also: polymerized repeat unit) [comparative depsipeptide polymer, Hmb=2-hydroxy-3-methylbutanoic acid (valic acid residue), reference compound] |  | 20-30 °C |  |
